Earlier results, collected in patent US20070225245A1, “Viral vector driven mutant bacterial cytosine deaminase gene and uses thereof” (priority 1998, published 2007).

Conditions: cited from earlier work

Row | Molecule | enzyme activity (by 96 h at 37° C.) | retained activity (at 168 h)
1 | yCD: yeast cytosine deaminase (protein, UniProt Q12178 1-158, looked up) Cytosine deaminase: MVTGGMASKWDQKGMDIAYEEAALGYKEGGVPIGGCLINNKDGSVLGRGHNMRFQKGSATLHGEISTLENCGRLEGKVYKDTTLYTTLSPCDMCTGAIIMYGIPRCVVGENVNFKSKGEKYLQTRGHEVVVVDDERCKKIMKQFIDERPQDWFEDIGE | loses all activity | –
2 | bCD: wild type bacterial cytosine deaminase (protein, UniProt P25524 2-427, looked up) Cytosine deaminase: SNNALQTIINARLPGEEGLWQIHLQDGKISAIDAQSGVMPITENSLDAEQGLVIPPFVEPHIHLDTTQTAGQPNWNQSGTLFEGIERWAERKALLTHDDVKQRAWQTLKWQIANGIQHVRTHVDVSDATLTALKAMLEVKQEVAPWIDLQIVAFPQEGILSYPNGEALLEEALRLGADVVGAIPHFEFTREYGVESLHKTFALAQKYDRLIDVHCDEIDDEQSRFVETVAALAHHEGMGARVTASHTTAMHSYNGAYTSRLFRLLKMSGINFVANPLVNIHLQGRFDTYPKRRGITRVKEMLESGINVCFGHDDVFDPWYPLGTANMLQVLHMGLHVCQLMGYGQINDGLNLITHHSARTLNLQDYGIAAGNSANLIILPAENGFDALRRQVPVRYSVRGGKVIASTQPAQTTVYLEQPEAIDYKR | – | 100%
